According to article PMC6787082, “The cell cycle-regulated DNA adenine methyltransferase CcrM opens a bubble at its DNA recognition site”:

Key:
CcrM [1] = biological target: T1, CcrM (Caulobacter crescentus, UniProt P0CAW2 1-358); assay: X-ray crystallography (2.7 A); sinefungin; Co-crystallization: protein stock in 20 mM HEPES pH 8.0, 300 mM NaCl, 5% glycerol, 0.5 mM TCEP; ~1:1 monomer:duplex (~56 uM), 5x sinefungin; well 0.1 M HEPES pH 7.8, 10% PEG 8000, 3% PEG 6000; 19 C; conditions: protein: recombinant; tags: N-terminal His-tag; chain copies: 2; 5' overhang 1 nt on each strand, 18 bp
T1 sequence (P0CAW2 whole entry): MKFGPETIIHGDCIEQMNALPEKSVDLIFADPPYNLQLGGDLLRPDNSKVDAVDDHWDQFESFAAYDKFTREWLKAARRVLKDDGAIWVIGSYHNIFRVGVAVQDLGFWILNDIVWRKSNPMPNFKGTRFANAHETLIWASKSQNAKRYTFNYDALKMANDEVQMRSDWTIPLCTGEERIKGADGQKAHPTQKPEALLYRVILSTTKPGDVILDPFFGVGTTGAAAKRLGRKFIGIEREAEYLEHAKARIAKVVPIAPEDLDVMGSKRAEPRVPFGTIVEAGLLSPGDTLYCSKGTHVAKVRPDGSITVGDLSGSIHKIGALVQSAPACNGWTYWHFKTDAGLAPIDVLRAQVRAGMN

CcrM [2] = biological target: T1, CcrM; assay: X-ray crystallography (2.34 A); sinefungin; Co-crystallization: protein stock in 20 mM HEPES pH 8.0, 300 mM NaCl, 5% glycerol, 0.5 mM TCEP; ~1:1 monomer:duplex (~56 uM), 5x sinefungin; well 0.1 M HEPES pH 7.8, 10% PEG 8000, 3% PEG 6000; 19 C; conditions: protein: recombinant; tags: N-terminal His-tag; chain copies: 2; 5' overhang 1 nt on each strand (C and G), 18 bp

Binder	binding result (CcrM [1])	binding result (CcrM [2])
Hemimethylated GAATC duplex (dsDNA, N6-methyladenine (printed M) at position 8 of strand 2 (GATTC, non-target strand)) DNA 1: CGATTCAATGAATCCCAAG DNA 2: GCTTGGGATTCATTGAATC	binds	
GAATC 18-bp duplex with 1-nt overhangs (dsDNA) DNA 1: CGATTCAATGAATCCCAAG DNA 2: GCTTGGGATTCATTGAATC		binds
